Measurements from IntAct's records for PubMed 17555716.

B1: 26S proteasome regulatory subunit 6B homolog (Saccharomyces cerevisiae), P33298 (parent)
chain: MEELGIVTPVEKAVEEKPAVKSYASLLAQLNGTVNNNSALSNVNSDIYFKLKKLEKEYELLTLQEDYIKDEQRHLKRELKRAQEEVKRIQSVPLVIGQFLEPIDQNTGIVSSTTGMSYVVRILSTLDRELLKPSMSVALHRHSNALVDILPPDSDSSISVMGENEKPDVTYADVGGLDMQKQEIREAVELPLVQADLYEQIGIDPPRGVLLYGPPGTGKTMLVKAVANSTKAAFIRVNGSEFVHKYLGEGPRMVRDVFRLARENAPSIIFIDEVDSIATKRFDAQTGSDREVQRILIELLTQMDGFDQSTNVKVIMATNRADTLDPALLRPGRLDRKIEFPSLRDRRERRLIFGTIASKMSLAPEADLDSLIIRNDSLSGAVIAAIMQEAGLRAVRKNRYVILQSDLEEAYATQVKTDNTVDKFDFYK
partner: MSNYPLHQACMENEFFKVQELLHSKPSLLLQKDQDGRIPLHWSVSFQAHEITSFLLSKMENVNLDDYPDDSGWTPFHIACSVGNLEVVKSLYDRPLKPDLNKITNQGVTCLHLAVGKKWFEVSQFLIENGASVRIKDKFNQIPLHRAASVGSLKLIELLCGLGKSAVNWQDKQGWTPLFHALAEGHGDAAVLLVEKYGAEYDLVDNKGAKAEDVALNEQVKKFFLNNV

Variants of: B1
Conditions: with psd10_yeast NAS6, P50086

effect of a mutation on the interaction | Variant
disrupting interaction strength | MEELGIVTPVEKAVEEKPAVKSYASLLAQLNGTVNNNSALSNVNSDIYFKLKKLEKEYELLTLQEDYIKDEQRHLKRELKRAQEEVKRIQSVPLVIGQFLEPIDQNTGIVSSTTGMSYVVRILSTLDRELLKPSMSVALHRHSNALVDILPPDSDSSISVMGENEKPDVTYADVGGLDMQKQEIREAVELPLVQADLYEQIGIDPPRGVLLYGPPGTGKTMLVKAVANSTKAAFIRVNGSEFVHKYLGEGPRMVRDVFRLARENAPSIIFIDEVDSIATKRFDAQTGSDREVQRILIELLTQMDGFDQSTNVKVIMATNRADTLDPALLRPGRLDRKIEFPSLRDRRERRLIFGTIASKMSLAPEADLDSLIIRNDSLSGAVIAAIMQEAGLRAVRANAYVILQSDLEEAYATQVKTDNTVDKFDFYK [K397A;R399A]
disrupting interaction strength | MEELGIVTPVEKAVEEKPAVKSYASLLAQLNGTVNNNSALSNVNSDIYFKLKKLEKEYELLTLQEDYIKDEQRHLKRELKRAQEEVKRIQSVPLVIGQFLEPIDQNTGIVSSTTGMSYVVRILSTLDRELLKPSMSVALHRHSNALVDILPPDSDSSISVMGENEKPDVTYADVGGLDMQKQEIREAVELPLVQADLYEQIGIDPPRGVLLYGPPGTGKTMLVKAVANSTKAAFIRVNGSEFVHKYLGEGPRMVRDVFRLARENAPSIIFIDEVDSIATKRFDAQTGSDREVQRILIELLTQMDGFDQSTNVKVIMATNRADTLDPALLRPGRLDRKIEFPSLRDRRERRLIFGTIASKMSLAPAAALDSLIIRNDSLSGAVIAAIMQEAGLRAVRKNRYVILQSDLEEAYATQVKTDNTVDKFDFYK [E365A;D367A]
